Assays:
[1] = molecular target: Francisella α2NTD (residues 1-242), bacterial two-hybrid fusion (Francisella tularensis subsp. novicida strain U112); assay: two-hybrid
[2] = molecular target: Francisella α1NTD (residues 1-244), bacterial two-hybrid fusion (Francisella tularensis subsp. novicida strain U112) (UniProt A0Q4K8); assay: two-hybrid

| Substance | β-galactosidase activity (Miller units) [1] [Miller units] | β-galactosidase activity (Miller units) [2] [Miller units] |
| --- | --- | --- |
| Francisella α1NTD (residues 1-244), bacterial two-hybrid fusion (from UniProt A0Q4K8 1-244) (domain or fragment) | 662 |  |
| Francisella α2NTD (residues 1-242), bacterial two-hybrid fusion (domain or fragment) |  | 1410 |
